Source: FireProtDB (doi:10.1111/j.1432-1033.1994.tb18652.x)

Conditions: Aspergillus oryzae (strain ATCC 42149 / RIB 40), pH 6, Thermal, DSC, sodium acetate calcium acetate 20 mM 2 mM, Mops 50 mM, reversible: yes, whole UniProt chain shown

B1: Guanyl-specific ribonuclease T1 wild type, P00651 (protein)
chain: MMYSKLLTLTTLLLPTALALPSLVERACDYTCGSNCYSSSDVSTAQAAGYQLHEDGETVGSNSYPHKYNNYEGFDFSVSSPYYEWPILSSGDVYSGGSPGADRVVFNENNQLAGVITHTGASGNNFVECT
Q: What does the source list for B1?
A: heat capacity change of unfolding (25 °C): 0.98 kcal/mol/K; unfolding free energy (25 °C): 7.82 kcal/mol; Tm: 57.2 °C; unfolding enthalpy (calorimetric): 96.6 kcal/mol
